Results reported in patent US12624123B2, “Compositions and methods for reducing off-target toxicity of antibody drug conjugates” (The Research Foundation for The State University of New York, priority 2019, dated 2026).
“And” between values parts separate entries of the source, which are not always exact repeats. Identical values can stand only once. “Also recorded” adds a separate entry of the source. Like-named read-outs stand apart in the source and are kept apart here.

Assays:
Lovo cells = test: MTT cytotoxicity of DM1 and DM4 on Lovo cells; format: cell-based; settings: for IC50: DM4 alone, read-out: IC50 of DM4
Method: Log-phase Lovo or MOLM-14 cells were seeded in 96-well microtiter plates at a density of 5,000 cells/well, in 100 μL or 70 μL of culture medium, respectively. […] MOLM-14 cells were re-suspended with treatment solutions, where 100 μL of cell-treatment suspension was aliquoted into wells of a 96-well plate for 24 h. Treatment solutions consisted of DM-4 with or without purified anti-drug sdAb. For MOLM-14 cells, 10 μL of MTT solution (5 mg/mL in pH 7.4 1× PBS) was added directly to wells following treatment incubation. For adherent cells, treatment media was aspirated from wells and cells were washed three times with 100 μL of fresh media. Following the final wash, 100 μL of complete media and 25 μL of MTT solution were added to each well. Cells were incubated for 4 h in order to allow cells to reduce MTT to formazan dye. Once MTT was reduced, 100 μL of 10% SDS prepared in 0.01 M HCl was added to each well and incubated overnight to solubilize the formazan crystals. Formazan dye was measured at 570 nm and normalized by cell debris at 690 nm.

MOLM-14 cells [1] = test: MTT cytotoxicity of DM4 on MOLM-14 cells (DF3A2); format: cell-based, human
Method: Log-phase Lovo or MOLM-14 cells were seeded in 96-well microtiter plates at a density of 5,000 cells/well, in 100 μL or 70 μL of culture medium, respectively. Lovo cells were allowed to adhere for 24 h before cell culture media was aspirated and replaced with 100 μL of PBS containing a range of treatment for 6h, then washed for 2 times before replacing with fresh media and incubated for additional 90 h. MOLM-14 cells were re-suspended with treatment solutions, where 100 μL of cell-treatment suspension was aliquoted into wells of a 96-well plate for 24 h. Treatment solutions consisted of DM-4 with or without purified anti-drug sdAb. For MOLM-14 cells, 10 μL of MTT solution (5 mg/mL in pH 7.4 1× PBS) was added directly to wells following treatment incubation. For adherent cells, treatment media was aspirated from wells and cells were washed three times with 100 μL of fresh media. Following the final wash, 100 μL of complete media and 25 μL of MTT solution were added to each well. Cells were incubated for 4 h in order to allow cells to reduce MTT to formazan dye. Once MTT was reduced, 100 μL of 10% SDS prepared in 0.01 M HCl was added to each well and incubated overnight to solubilize the formazan crystals. Formazan dye was measured at 570 nm and normalized by cell debris at 690 nm.

NCI-N87 cells = test: NCI-N87 pulse cytotoxicity assay with C7 sdAb prep; format: cell-based; settings: NCI-N87, 2 h pulse, 96 h with sdAb prep diluted 1:6.67
Method: FIG. 43. Purification of C7 sdAb from BL21(DE3) transformed E. coli cells and inhibitory cell cytotoxicity assays. C7 sdAb was expressed to the periplasm using a pelB leader sequence and purified using IMAC Ni-NTA resin. […] Although the product was crude, it was employed in cell cytotoxicity assays. NCI-N87 cells were seeded at a density of 10,000 cells/well and pulse with treatment solutions for 2 h. After treatment removal and washing, cells were incubated for 96 h with sdAb prep, diluted 1:6.67 with fresh culture medium.
From the single domain library, there were nine positive hits from three rounds of panning against BSA-MMAF/T-vc-MMAE. The screening of isolated colonies determined all were inhibited by incubation with free MMAE (FIG. 42), with three >10-fold inhibition. One colony, C7 was selected for infection of BL21(DE3) cells and protein expression.

Ramos cells = test: MTT cytotoxicity of calicheamicin on Ramos cells; format: cell-based; settings: 24 h
Method: (§1) Log-phase MOLM-14, Ramos (RA 1), HT-29, LS174T, or NCI-N87 cells were seeded in 96-well microtiter plates at a density of 20,000 cells/well, 20,000 cells/well, 5,000 cells/well, 5,000 cells/well, and 10,000 cells/well, respectively, in 100 μL of culture medium. HT-29, LS174T, and NCI-N87 cells were allowed to adhere for 24 h before cell culture media was aspirated and replaced with 100 μL of fresh media containing a range of treatment for, 48 (LS174T), 96 (NCI-N87), or 120 (HT-29) h. MOLM-14 and Ramos cells were re-suspended with treatment solutions, where 100 μL of cell-treatment suspension was aliquoted into wells of a 96-well plate for 24 h. Treatment solutions consisted of calicheamicin, MMAE, topotecan, or SN38 with or without immunized animal plasma, purified anti-drug antibody, or antibody-drug conjugate (ADC) with or without plasma or anti-drug antibody. For MOLM-14 and Ramos cells, 25 μL of MTT solution (5 mg/mL in pH 7.4 1× PBS) was added directly to wells following treatment incubation. For adherent cells, treatment media was aspirated from wells and cells were washed three times with 100 μL of fresh media. Following the final wash, 100 μL of complete media and 25 μL of MTT solution were added to each well. Cells were incubated for 4 h in order to allow cells to reduce MTT to formazan dye. Once MTT was reduced, 100 μL of 10% SDS prepared in 0.01 M HCl was added to each well and incubated overnight to solubilize the formazan crystals. Formazan dye was measured at 570 nm and normalized by cell debris at 690 nm.
(§2) Fresh media containing a range of treatment were pre-incubated with or without 100 μM purified sdAb at room temperature for 30 minutes. Log-phase MOLM-14 cells were seeded in 96-well microtiter plates at a density of 20,000 cells/well, and were re-suspended with treatment solutions, where 100 μL of cell-treatment suspension was aliquoted into wells of a 96-well plate for 24 h. 25 μL of MTT solution (5 mg/mL in pH 7.4 1× PBS) was added directly to wells following treatment incubation. […] Formazan dye was measured at 570 nm and normalized by cell debris at 690 nm.

MOLM-14 cells [2] = test: MTT cytotoxicity of calicheamicin on MOLM-14 cells; format: cell-based, human; settings: 24 h, 100 μM peptide or sdAb
Method: as §1, §2

[3] = sdAb CG4 ELISA and Dynabeads binding assay; settings: for actual fold reduction considering background: 10 μM calicheamicin
Method: Nunc Maxisorp 96-well plates were coated with 4 μg/ml Cetuximab or Cetuximab-calicheamicin, or 5 μg/ml Avidin. Plates were washed three times with PBST and three times with dH2O, and blocked with MPBS for 2 h at RT. For the Avidin coated plates, plates were washed three times with PBST and incubated with 1 μM Biotin-Calicheamcin. Plates were then washed three times with PBST and incubated with increasing concentration of purified sdAb CG4 (G4 from FIG. 25) at RT for 2 h, with or without pre-incubation with free Calicheamicin at 10 μM. Plates were then washed three times with PBST, where bound sdAb was detected using an anti-His tag HRP-conjugated Ab diluted 1:1000 in MPBST. Following incubated and five washed with PBST, 100 μL of 1-Step Turbo TMB-ELISA solution was added to each well and incubated for 30 minutes. The reaction was quenched by adding 100 μL of Stop solution to each well and absorbance was measured at 450 nm. Alternatively, wells can also be incubated with 1:1000 diluted anti-His tag AP-conjugated Ab, instead of HRP conjugated Ab. After washing, 4 mg/ml PNPP in diethanolamine buffer pH 9.8 with absorbance being read at 405 nm.
Calicheamicin conjugated dynabeads were washed with PBST and blocked with MPBS for 30 min. Beads were washed three times with PBST and incubated with sdAb for 30 minutes. Bound sdAb were detected with 1:1000 diluted anti-His tag HRP-conjugated Ab. After washed with PBST, beads were resuspended with 500 μL of 1-Step Turbo TMB-ELISA solution and incubated for 30 minutes. The reaction was quenched by adding Stop solution, and absorbance was measured at 450 nm.

[4] = Screening of llama sdAb phage clones against calicheamicin conjugates (FIG. 25); format: binding
Method: A master plate was generated by inoculating a single colony into wells of a 96-well round-bottom culture plate filled with […] 2×TY supplemented with 100 μg/mL ampicillin, 2% (wt/vol) glucose and 10% (vol/vol) glycerol, and grown overnight at 37° C. These wells were then used to inoculate wells of 96-deepwell plates containing 1 mL of 2×TY medium (100 μg/mL ampicillin+0.1% (wt/v) glucose per well). Plates were incubated them for 3 h at 37° C. and 250 rpm until OD600≈0.5. Nanobody expression was induced with 4 μL of 0.5 M IPTG per well (final concentration of 2 mM) and incubated for an additional 15-24 h at 37° C. and 250 rpm. Nunc Maxisorp 96-well plates were coated as described previously. Plates were washed three times with PBST and blocked with MPBS for 2 h at RT. […] Plates were then washed three times with PBST, where bound phage was detected using an anti-HA tag HRP-conjugated Ab diluted 1:1000 in PBST. Following incubated and five washed with PBST, 100 μL of 1-Step Turbo TMB-ELISA solution was added to each well and incubated for 30 minutes. The reaction was quenched by adding 100 μL of Stop solution to each well and absorbance was measured at 450 nm.
50 μl Dynabeads-calicheamicin were blocked with MPBS (PBS+2% non-fat dry milk) at RT for 30 minutes. Following pre-incubation with 1:50 preimmunized llama plasma, phage solutions were incubated with beads at RT for 30 minutes. […]

[5] = SPR dissociation screening on DM1-Biotin chip; format: binding; settings: 20 min dissociation phase
Method: Preliminary screening of DM1/4 binders were performed using a neutravidin SPR chip with DM1-Biotin on the left channel. Phagemid purified sdAbs were flowed over the SPR chip for 2 minutes at a flow rate of 25 ul/min. After binding, sdAb was dissociated for 20 minutes. Observed sensorgrams were fit to an individual dissociation rate constant for each construct. Equilibrium and kinetic binding of 3A2 was assessed using a CM5 SPR chip with TDM1 immobilized on the left channel. […] Rate constants for 3A2-TDM1 association and dissociation were obtained through fitting of the observed sensorgrams for the 1.25, 2.5, 5, 7.5 and 10 nM injections to a 1:1 Langmuir binding model.

Molecule: COc1cc2cc(c1Cl)N(C)C(=O)C[C@H](OC(=O)[C@H](C)N(C)C(=O)CCC(C)(C)S)[C@]1(C)O[C@H]1[C@H](C)[C@@H]1C[C@@](O)(NC(=O)O1)[C@H](OC)/C=C/C=C(\C)C2 [DM4]
- IC50 (Lovo cells; 6 h exposure): 7.7 nM and 21.5 nM
- IC50 (Lovo cells; 24 h exposure): 0.713 nM and 1.84 nM
- IC50 (MOLM-14 cells [1]; DM4 alone): 18 nM and 18.4 nM

B1: MC7 (protein)
VHH: QVQLVQSGGGLVQAGGSLRLSCVASGRTFSMYRMGWFRQAPGKEREFVASIRWSGGSTYYTDSVKDRFTISRDNAKNTVYLQMNSLKPEDTAVYYCAADPVWRLNSWYRGAVGYWGQGTQVTVSS
modifications: MC7
- fold enhancement of T-vc-MMAE cytotoxicity (NCI-N87 cells): 5.2 fold
- fold inhibition of MMAE cytotoxicity (NCI-N87 cells): 5.6 fold

B2: CG4: Anti-Calicheamicin sdAb, SEQ ID NO:12 (protein)
VHH: QVQLQESGGGLVQAGGSLRLSCAASGRTISGYAMGWFRQAPGKERDLVAAISRSGTSTYYADSVKGRFTISRDNAKNTVYLQMNSLKPEDTAVYYCNAPGGIWGQGTQVTVSS
modifications: CG4
- fold inhibition of calicheamicin cytotoxicity (IC50 shift) (Ramos cells): 6.34 fold
- fold change of calicheamicin IC50 (MOLM-14 cells [2]): 15.4 fold
- fold decrease of CG4 binding signal by 10 μM calicheamicin ([3]; avidin (biotin-calicheamicin) coated plates, 64 μM CG4): 2 fold
- actual fold reduction considering background ([3]; avidin coated plates): ~4.3 fold
- binding to calicheamicin conjugates vs CG4 concentration ([3]; cetuximab-calicheamicin ELISA and Dynabeads-calicheamicin): apparent calicheamicin binding with increasing concentration; also recorded: increased with increasing concentration
- actual fold reduction considering background ([3]; cetuximab-calicheamicin coated plates): around 3.3 fold
- effect of 1 μM free calicheamicin on clone binding ([4]; rescreen of five colonies): only clone inhibited; also recorded: loss of binding signal
- binding to dynabeads-calicheamicin ([4]; single colonies): high binding

B3: DF3A2 (protein)
VHH: QVQLQESGGGLVQPGGSLRLSCAASGGIFGISYMGWYRQAPGKQREPVALITSGGDTAYGDSVKGRFAISRDNAKNTVYLQMNSLKPDDTSAYYCAAGFYRSDSPNRYDYWGQGTQVTVSS
modifications: DF3A2
- dissociation kinetics [5]: longest dissociation rates; also recorded: longer dissociation rates
- fold shift of DM4 IC50 (Lovo cells; 6 h exposure): 11 fold
- fold inhibition of DM4 cytotoxicity (MOLM-14 cells [1]): 2.1 fold
